Experimental data: article PMC2699393 (EMBO Reports, 2009)

Target: T1, MBP–TIP150 (maltose-binding protein–tracking protein 150) (human, UniProt Q5JR59 1-1369)
T1 sequence (looked up): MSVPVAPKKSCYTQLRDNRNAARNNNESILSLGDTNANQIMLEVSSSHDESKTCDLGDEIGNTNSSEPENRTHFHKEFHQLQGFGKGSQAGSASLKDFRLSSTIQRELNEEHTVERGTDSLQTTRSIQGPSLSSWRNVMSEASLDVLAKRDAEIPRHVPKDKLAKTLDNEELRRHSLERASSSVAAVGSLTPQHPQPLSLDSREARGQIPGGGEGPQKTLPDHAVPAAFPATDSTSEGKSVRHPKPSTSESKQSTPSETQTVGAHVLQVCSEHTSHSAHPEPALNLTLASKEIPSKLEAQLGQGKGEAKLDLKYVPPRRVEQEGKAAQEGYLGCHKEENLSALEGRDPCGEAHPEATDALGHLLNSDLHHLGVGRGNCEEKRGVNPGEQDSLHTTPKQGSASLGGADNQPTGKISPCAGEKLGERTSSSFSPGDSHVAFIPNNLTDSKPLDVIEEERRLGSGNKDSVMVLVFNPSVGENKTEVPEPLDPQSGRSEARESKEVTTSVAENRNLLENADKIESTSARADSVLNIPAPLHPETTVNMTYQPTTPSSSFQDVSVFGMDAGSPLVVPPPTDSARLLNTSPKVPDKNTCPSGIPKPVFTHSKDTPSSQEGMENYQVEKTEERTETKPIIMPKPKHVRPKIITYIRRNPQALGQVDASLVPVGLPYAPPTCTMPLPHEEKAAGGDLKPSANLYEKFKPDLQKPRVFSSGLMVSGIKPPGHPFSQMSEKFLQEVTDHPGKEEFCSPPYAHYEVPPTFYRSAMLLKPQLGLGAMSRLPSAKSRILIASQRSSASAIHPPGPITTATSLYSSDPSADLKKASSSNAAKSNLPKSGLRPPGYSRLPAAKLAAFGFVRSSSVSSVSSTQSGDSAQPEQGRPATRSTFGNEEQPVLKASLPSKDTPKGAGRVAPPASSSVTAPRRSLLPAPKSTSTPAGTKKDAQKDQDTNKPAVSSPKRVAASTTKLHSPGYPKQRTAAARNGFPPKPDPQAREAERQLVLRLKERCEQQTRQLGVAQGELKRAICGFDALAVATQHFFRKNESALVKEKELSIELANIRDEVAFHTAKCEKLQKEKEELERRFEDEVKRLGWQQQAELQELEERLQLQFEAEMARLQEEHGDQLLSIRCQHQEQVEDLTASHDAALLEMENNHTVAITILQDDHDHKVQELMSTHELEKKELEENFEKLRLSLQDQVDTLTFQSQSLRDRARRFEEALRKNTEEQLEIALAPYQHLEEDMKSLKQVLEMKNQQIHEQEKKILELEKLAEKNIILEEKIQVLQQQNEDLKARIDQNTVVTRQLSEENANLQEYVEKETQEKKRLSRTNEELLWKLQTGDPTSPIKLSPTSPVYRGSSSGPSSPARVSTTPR
Test: pull-down

B1: GST–EB1 (glutathione-S-transferase–end-binding protein 1) (natural protein, human, UniProt Q15691 1-268, looked up)
chain: MAVNVYSTSVTSDNLSRHDMLAWINESLQLNLTKIEQLCSGAAYCQFMDMLFPGSIALKKVKFQAKLEHEYIQNFKILQAGFKRMGVDKIIPVDKLVKGKFQDNFEFVQWFKKFFDANYDGKDYDPVAARQGQETAVAPSLVAPALNKPKKPLTSSSAAPQRPISTQRTAAAPKAGPGVVRKNPGVGNGDDEAAELMQQVNVLKLTVEDLEKERDFYFGKLRNIELICQENEGENDPVLQRIVDILYATDEGFVIPDEGGPQEEQEEY
Does B1 bind?
Result: binds
